From US20230117205A1, “B7-H4 ANTIBODY-DRUG CONJUGATES FOR THE TREATMENT OF CANCER” (SEAGEN INC., priority 2021, published 2023) come the findings set out here.

For test [1], the target named is hFcγRIIa H131 (biotinylated avi-tagged, fused with monomeric Fc) (human) (UniProt P12318). Kind of test: BLI (Octet HTX), biotinylated hFcγRIIa H131 on streptavidin biosensors, ADC in solution, 30 C, 1:1 fit.
Test [2] addresses hFcγRIIIa F158 (biotinylated avi-tagged, fused with monomeric Fc) (human) (UniProt P08637). As to the kind of experiment: BLI (Octet HTX), biotinylated hFcγRIIIa F158 on streptavidin biosensors, ADC in solution, 30 C, 1:1 fit. On the technique in general: Biolayer interferometry detects binding as a change in optical thickness at a sensor tip.
The target in test [3] is hscFcRN (biotinylated avi-tagged, fused with monomeric Fc) (human) (UniProt P55899). Kind of test: BLI (Octet HTX), biotinylated hscFcRN on streptavidin biosensors, antibody in solution, pH 6.0, 30 C, 1:1 fit.
In test [4] the target is hFcγRIIIa F158 (biotinylated avi-tagged, fused with monomeric Fc) (human) (UniProt P08637). Kind of test: BLI (Octet HTX), biotinylated hFcγRIIIa F158 on streptavidin biosensors, antibody in solution, 30 C, 1:1 fit.
For test [5], the target named is hFcγRIIb (biotinylated avi-tagged, fused with monomeric Fc) (human) (UniProt P31994). As to the kind of experiment: BLI (Octet HTX), biotinylated hFcγRIIb on streptavidin biosensors, antibody in solution, 30 C, 1:1 fit.
Test [6] addresses hFcγRIIIa V158 (biotinylated avi-tagged, fused with monomeric Fc) (human) (UniProt P08637). As to the kind of experiment: BLI (Octet HTX), biotinylated hFcγRIIIa V158 on streptavidin biosensors, antibody in solution, 30 C, 1:1 fit.
Test [7] has as its target hFcγRI (biotinylated avi-tagged, fused with monomeric Fc) (human) (UniProt P12314). As to the kind of experiment: BLI (Octet HTX), biotinylated hFcγRI on streptavidin biosensors, antibody in solution, 30 C, 1:1 fit.
Test [8] addresses hFcγRIIa R131 (biotinylated avi-tagged, fused with monomeric Fc) (human) (UniProt P12318). As to the kind of experiment: BLI (Octet HTX), biotinylated hFcγRIIa R131 on streptavidin biosensors, antibody in solution, 30 C, 1:1 fit.
Test [9] addresses T1, human B7-H4 on cells (human, UniProt Q7Z7D3 25-282).
T1 sequence: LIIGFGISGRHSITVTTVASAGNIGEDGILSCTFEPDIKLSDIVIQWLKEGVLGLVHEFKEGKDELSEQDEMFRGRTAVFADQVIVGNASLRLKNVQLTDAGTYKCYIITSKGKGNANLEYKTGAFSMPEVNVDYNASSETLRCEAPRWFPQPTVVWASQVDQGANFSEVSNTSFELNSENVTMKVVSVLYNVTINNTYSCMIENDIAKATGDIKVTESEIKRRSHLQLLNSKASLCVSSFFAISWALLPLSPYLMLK
As to the kind of experiment: cell-based or functional assay.

Test [10] deals with T1, human B7-H4 on cells. Kind of test: IHC on cell pellets, MDA-MB-468 cells that express B7-H4 endogenously.
The target in test [11] is T1, human B7-H4 on cells. Kind of test: IHC on cell pellets, HCC1569 cells that express B7-H4 endogenously.
Test [12] addresses T1, human B7-H4 on cells. As to the kind of experiment: IHC on cell pellets, ZR-75-30 cells that express B7-H4 endogenously.
The target in test [13] is T1, human B7-H4 on cells. As to the kind of experiment: IHC on cell pellets, HCC1954 cells that express B7-H4 endogenously.
The target in test [14] is T1, human B7-H4 on cells. Kind of test: IHC on cell pellets, SKBR3 cells that express B7-H4 endogenously.

A value given as a limit tells only on which side of the number the result lay.

hFcγRIIIa V158 (biotinylated avi-tagged, fused with monomeric Fc) (human), sequence (P08637 17-208 F176V): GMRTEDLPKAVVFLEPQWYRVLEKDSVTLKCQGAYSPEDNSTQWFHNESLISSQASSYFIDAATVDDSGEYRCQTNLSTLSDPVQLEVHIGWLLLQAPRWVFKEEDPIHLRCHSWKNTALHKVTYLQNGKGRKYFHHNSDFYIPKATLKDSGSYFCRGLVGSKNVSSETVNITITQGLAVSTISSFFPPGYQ
hscFcRN (biotinylated avi-tagged, fused with monomeric Fc) (human), sequence (P55899 24-297 limits assumed, form in doubt, chain 1 of 2): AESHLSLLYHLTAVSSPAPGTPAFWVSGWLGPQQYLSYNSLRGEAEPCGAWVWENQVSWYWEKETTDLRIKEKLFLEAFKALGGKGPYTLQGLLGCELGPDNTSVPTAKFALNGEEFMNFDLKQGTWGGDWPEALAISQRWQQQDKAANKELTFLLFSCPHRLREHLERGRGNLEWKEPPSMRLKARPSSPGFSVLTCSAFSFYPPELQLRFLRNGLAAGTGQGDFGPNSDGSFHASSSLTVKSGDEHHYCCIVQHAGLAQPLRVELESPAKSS
hscFcRN (biotinylated avi-tagged, fused with monomeric Fc) (human), sequence (chain, as listed by the source limits assumed, form in doubt, chain 2 of 2): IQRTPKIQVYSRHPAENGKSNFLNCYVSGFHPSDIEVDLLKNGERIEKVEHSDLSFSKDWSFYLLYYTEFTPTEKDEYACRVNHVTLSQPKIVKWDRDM
hFcγRI (biotinylated avi-tagged, fused with monomeric Fc) (human), sequence (P12314 16-292): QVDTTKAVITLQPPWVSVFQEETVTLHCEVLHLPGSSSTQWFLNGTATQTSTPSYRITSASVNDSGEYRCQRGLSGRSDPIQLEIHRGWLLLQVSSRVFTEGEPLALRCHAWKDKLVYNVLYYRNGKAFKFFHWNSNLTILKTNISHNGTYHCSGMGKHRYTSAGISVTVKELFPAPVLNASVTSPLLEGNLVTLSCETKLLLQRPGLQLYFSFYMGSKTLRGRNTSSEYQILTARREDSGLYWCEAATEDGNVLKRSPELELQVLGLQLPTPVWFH
hFcγRIIb (biotinylated avi-tagged, fused with monomeric Fc) (human), sequence (P31994 43-217): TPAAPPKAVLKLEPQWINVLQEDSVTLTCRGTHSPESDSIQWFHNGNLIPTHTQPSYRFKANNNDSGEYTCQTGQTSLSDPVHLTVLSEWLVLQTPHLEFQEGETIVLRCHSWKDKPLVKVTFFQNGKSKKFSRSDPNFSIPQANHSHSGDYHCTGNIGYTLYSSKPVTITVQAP
hFcγRIIa R131 (biotinylated avi-tagged, fused with monomeric Fc) (human), sequence (P12318 34-217 H167R): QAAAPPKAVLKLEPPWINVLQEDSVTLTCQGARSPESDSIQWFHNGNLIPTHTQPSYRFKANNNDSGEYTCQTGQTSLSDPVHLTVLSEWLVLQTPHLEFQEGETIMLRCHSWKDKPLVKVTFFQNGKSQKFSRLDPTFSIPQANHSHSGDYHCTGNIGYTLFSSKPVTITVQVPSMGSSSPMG

A word on the Kd: it is the concentration at which binding is half-saturated. Low readings indicate higher affinity, high ones lower affinity. On to SGN-B7H4V (antibody), for which the Kd in [1] was found to be 4.2 µM; in test [2], 10.4 µM.
Consider “positive control mAb (the anti-CD70 mAb h1F6) (antibody)”, for which the Kd is 0.0103 µM in test [3]; 4.8 µM in test [4]; 29 µM in test [5]; 0.78 µM in test [6]; 0.0018 µM in [7]; 3.1 µM in test [8].
Regarding non-binding control ADC (antibody), in the test with human B7-H4 on cells [9], the x50 (ng/mL), in vitro cytotoxicity, MDA-MB-468, 96 h, 3D spheroid, CellTiter-Glo is more than 1000 ng/mL; the x50 (ng/mL), in vitro cytotoxicity, MX1, 96 h, 3D spheroid, CellTiter-Glo is more than 1000 ng/mL; the x50 (ng/mL), in vitro cytotoxicity, SKBR3, 96 h, 3D spheroid, CellTiter-Glo is more than 1000 ng/mL.
In the case of anti-B7-H4 antibody clone D1M8I, the intensity score with human B7-H4 on cells [10] is 3; with human B7-H4 on cells [11], 3; with human B7-H4 on cells [12] it was 1; with human B7-H4 on cells [13], 2; with human B7-H4 on cells [14] it was 3.

B1: B7H41001 mAb quenched fluorophore conjugate (antibody, human IgG1, kappa, V domains shown)
VH: QLQLQESGPGLVKPSETLSLTCTVSGGSIKSGSYYWGWIRQPPGKGLEWIGNIYYSGSTYYNPSLRSRVTISVDTSKNQFSLKLSSVTAADTAVYYCAREGSYPNQFDPWGQGTLVTVSS
VL: EIVMTQSPATLSVSPGERATLSCRASQSVSSNLAWYQQKPGQAPRLLIYGASTRATGIPARFSGSGSGTEFTLTISSLQSEDFAVYYCQQYHSFPFTFGGGTKVEIKR
modifications: Cy5 dye and quencher pair attached by the same vc linker as in SGN-B7H4V; sites not stated
Regarding B1, in the test with human B7-H4 on cells [9], the “apparent half-life of the increase of fluorescent signal (internalization, quenched fluorophore assay on SKBR3 and MX-1 cells)” value lay in the range of 3.2 to 4.9 h.
